Patent publication US20230220399
Read-outs that look alike come from different tables or passages of the source.

Tests used:
[1] = molecular target: human serum albumin (HSA) (Homo sapiens) (UniProt P02768); settings: ELISA, SB18, 37 C
[2] = molecular target: CD3 delta/epsilon heterodimer (UniProt P04234+P07766); settings: ELISA, SB18, 37 C
[3] = molecular target: PD-L1 (B7-H1) (Homo sapiens) (UniProt Q9NZQ7); settings: ELISA, SB18, 37 C
[4] = molecular target: 4-1BB (TNFRSF9) (Homo sapiens) (UniProt Q07011); settings: ELISA
[5] = system: KRAS G12D G12D, P01116-2; settings: ELISA, SB18, 37 C
[6] = Nap-dU at n (6) positions [Nap-dU at 16,20,23,28,29,30,31,34,40,41,42,45,54]
[7] = Nap-dU at n (6) positions [Nap-dU at 18,22,26,34,36,39,42,43,46,52,57]
[8] = Nap-dU at n (6) positions [18,20,22,32,33,34,35,36,44,45,47,53,57 (Nap-dU)]
[9] = Nap-dU at n (6) positions [18,20,26,27,29,31,35,36,42,45,53,54,55,56]
[10] = Nap-dU at n (6) positions [Nap-dU at 3,6,11,12,13,14,17,23,24,25,28,37]
[11] = Nap-dU at n (6) positions [4,8,14,21-23,25]
[12] = Nap-dU at n (6) positions [4,8,14,21,22,23,25]
[13] = Nap-dU at n (6) positions [Nap-dU at 5,6,7,8,11,17,18,19,22]
[14] = Nap-dU at n (6) positions [Nap-dU at 4,17,24,26,29,32,33,36,45]
[15] = Nap-dU at n (6) positions [13,15-16,18,23-24,29,31,34,41,44]
[16] = Nap-dU at n (6) positions [9,14,18,24,31,32,33,35,44]
[17] = Nap-dU at n (6) positions [Nap-dU at 21,28,30,33,36,37,40,49]
[18] = Nap-dU at n (6) positions [2,4,9,17,19,23,24,25,26,33,35]
[19] = Nap-dU at n (6) positions [1,7,9,15,17,19,24,32,34,38,39,40,41,48,50]
[20] = Nap-dU at n (6) positions [1,6,7,8,14,16,18,20], SB18, 37 C
[21] = Nap-dU at n (6) positions [1,6,7,8,14,16,18,20]
[22] = Nap-dU at n (6) positions [Nap-dU at 1,6,7,8,9,12,18,19,20,23]

Sequence of PD-L1 (B7-H1) (Homo sapiens) (Q9NZQ7 19-238): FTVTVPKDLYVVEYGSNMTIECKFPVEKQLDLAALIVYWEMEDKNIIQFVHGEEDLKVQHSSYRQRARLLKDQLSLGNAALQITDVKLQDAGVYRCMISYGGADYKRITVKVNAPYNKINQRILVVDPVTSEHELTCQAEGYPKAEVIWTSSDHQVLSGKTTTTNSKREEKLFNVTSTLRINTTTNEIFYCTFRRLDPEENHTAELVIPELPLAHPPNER
Sequence of CD3 delta/epsilon heterodimer (P04234 22-105, stated change not applied, chain 1 of 2): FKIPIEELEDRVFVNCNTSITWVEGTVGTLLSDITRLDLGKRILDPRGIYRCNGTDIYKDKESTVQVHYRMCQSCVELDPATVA
Sequence of CD3 delta/epsilon heterodimer (P07766 23-126, stated change not applied, chain 2 of 2): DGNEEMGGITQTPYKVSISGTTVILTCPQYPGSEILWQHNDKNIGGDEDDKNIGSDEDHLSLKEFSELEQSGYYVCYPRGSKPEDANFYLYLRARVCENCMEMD
Sequence of 4-1BB (TNFRSF9) (Homo sapiens) (Q07011 24-186): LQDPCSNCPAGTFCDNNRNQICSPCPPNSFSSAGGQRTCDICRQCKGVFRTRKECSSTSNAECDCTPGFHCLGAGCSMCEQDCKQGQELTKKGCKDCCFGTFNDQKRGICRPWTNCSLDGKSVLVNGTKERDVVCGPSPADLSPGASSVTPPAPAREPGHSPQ

GAGTGACCGTCTGCCTGGATCCTGCCCTTTTAATCCGACTTTAATGGCCACGCTCACCAGCCACACCACCAGCC [AA001]
Kd [1, 6]: 9.62 nM
Kd [2, 6]: 3.17 nM

GAGTGACCGTCTGCCTGTCAATCACTGACGAAATGTACTACTTGATAGAGCTAACCTCAGCCACACCACCAGCC [AP027]
Kd [1, 7]: 2.17 nM
Kd [3, 7]: 354 nM

GAGTGACCGTCTGCCTGTCTCCAACCTCGCCTTTACAACTATATCTGACGAACTAACACAGCCACACCACCAGCC [AB001]
Kd ([4]; Nap-dU at n (6) positions [Nap-dU at 16,18,20,27,32,33,34,40,42,44,46,54], SB18 buffer (5 mM MgCl2), 37 C): 0.04 nM
Kd ([1]; Nap-dU at n (6) positions [Nap-dU at 16,18,20,27,32,33,34,40,42,44,46,54]): 8.39 nM

GAGTGACCGTCTGCCTGTGTCTGAGGGACCCTTTTTAAGGGCATTATCAGCATGCCTCACACAGCCACACCACCAGCC [AD002]
Kd [1, 8]: 1.3 nM
Kd [5, 8]: 0.55 nM

GAGTGACCGTCTGCCTGTGTGAGAATTATGTACCTTAACGATCATCCGAAGGTTTTGACCACAGCCACACCACCAGCC [AD001]
Kd [1, 9]: 8.4 nM
Kd [5, 9]: 8.12 nM

GATCCTGCCCTTTTAATCCGACTTTAATGGCCACGCTCAC [AA003]
Kd [1, 10]: 4.32 nM
Kd [2, 10]: 7.63 nM

GCATAAGTCCGGATGGCAGCTTTATGC [AD008]
Kd [1, 11]: 66.9 nM
Kd [5, 11]: 287 nM

GCATAAGTCCGGATGGCAGCTTTATGCCGACC [AD007]
Kd [1, 12]: 536 nM
Kd [5, 12]: 152 nM

GCCCTTTTAATCCGACTTTAAT [AA007]
Kd [1, 13]: 2.03 nM
Kd [2, 13]: 15.1 nM

GCCTGACAACAACGAGTGCGAACTGTACTACTTGATAGAGACCCTCAGCC [AP001]
Kd [1, 14]: 20.9 nM
Kd [3, 14]: 42.7 nM

GCCTGCCCCGCCTCTTCTGAAGTTAACATGTGCTCCGAGATGGTACAGCC [AD010]
Kd [1, 15]: 4.49 nM
Kd [5, 15]: 8.18 nM

GCCTGGACTAGCATAAGTCCGGATGGCAGCTTTATGCCGACCATCAGCC [AD004]
Kd [1, 16]: 190 nM
Kd [5, 16]: 16.6 nM

GCCTGTCTCCAACCTCGCCTTTACAACTATATCTGACGAACTAACACAGCC [AB002]
Kd ([4]; Nap-dU at n (6) positions [6,8,15,20,21,22,28,30,32,34,42], SB18, 37 C): 0.48 nM
Kd ([1]; Nap-dU at n (6) positions [6,8,15,20,21,22,28,30,32,34,42]): 2.92 nM

GTCTGCCTGACAACAACGAGTGCGAACTGTACTACTTGATAGAGACCCTC [AP024]
Kd [1, 17]: 22.3 nM
Kd [3, 17]: 33.3 nM

GTCTGCCTGACAACAACGAGTGCGAACTGTACTACTTGATAGAGACCCTCAGCCACACCACCAGCC [AP022]
Kd [1, 17]: 16.6 nM
Kd [3, 17]: 66.6 nM

GTGTGACCTGAAGACGTATAACTTTTACAGAATCTACA [AD050]
Kd [1, 18]: 5.55 nM
Kd [5, 18]: 455 nM

TCGAGCTGTACGCGTGTGTGACCTGAAGACGTATAACTTTTACAGAATCTACA [AD053]
Kd [1, 19]: 1.37 nM
Kd [5, 19]: 1.03 nM

TCGCCTTTACAACTATATCTGACGA [AB007]
Kd [4, 20]: 0.49 nM
Kd [1, 21]: 186 nM

TCGCCTTTACAACTATATCTGACGAAC [AB006]
Kd [4, 20]: 0.44 nM
Kd [1, 21]: 278 nM

TCTCCAACCTCGCCTTTACAACTATATCTGACGAACTAACA [AB003]
Kd ([4]; Nap-dU at n (6) positions [1,3,10,15,16,17,23,25,27,29,37], SB18, 37 C): 0.87 nM
Kd ([1]; Nap-dU at n (6) positions [1,3,10,15,16,17,23,25,27,29,37]): 19.8 nM

TGCCCTTTTAATCCGACTTTAATGGC [AA006]
Kd [1, 22]: 15.5 nM
Kd [2, 22]: 14.3 nM

TGCCCTTTTAATCCGACTTTAATGGCCACG [AA005]
Kd [1, 22]: 8.27 nM
Kd [2, 22]: 39.4 nM
